According to patent publication US20160146827A1:

Molecular target: GST-tagged PAK1-PBD protein (Cytoskeleton Inc.), Rac/Cdc42 (p21) binding domain of human p21 activated kinase 1, residues 67-150 (human) (UniProt Q13153)
Assay: fluorescence anisotropy in solution

Chain of GST-tagged PAK1-PBD protein (Cytoskeleton Inc.), Rac/Cdc42 (p21) binding domain of human p21 activated kinase 1, residues 67-150 (human) (Q13153 67-150 limits assumed): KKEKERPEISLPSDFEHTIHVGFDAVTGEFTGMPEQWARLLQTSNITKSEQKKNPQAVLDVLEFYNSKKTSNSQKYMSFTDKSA

anisotropy (before addition): 0.19
anisotropy (bound): 0.22
increase in anisotropy on binding: 14%
Substance: LUMP-Cdc42, fusion protein of LUMP with the constitutively active GTPase Cdc42 (Q61L) connected by a ten amino acid flexible linker (…) (from UniProt Q06877 1-186; P60953 1-191)
